Experimental data: PMC9107513

Experiments:
[1] = MS of immunoprecipitated endogenous RYR1, C2C12; conditions: glycan lost; control: control siRNA
[2] = western blot, endogenous RYR1, C2C12 myotubes ± MG-132; conditions: glycan lost; control: vector / control siRNA
[3] = IP of exogenous RYR1, phospho-Ser/Thr blot; conditions: glycan lost; control: control siRNA
[4] = western blot, exogenous wild-type RYR1 in C2C12; conditions: glycan lost; control: vector / control siRNA
[5] = IP of tagged RYR1, blot of tagged ubiquitin, MG-132; conditions: glycan lost; control: vector / control siRNA

In the case of RYR1: OGT knockdown, the “other: phosphorylation at T4338” value [1] is reported as “increases”.
In the case of RYR1: siRNA-mediated knockdown of OGT, the expression_or_secretion [2] is reported as “increases”.
For human RYR1: OGT knockdown, the “other: Ser/Thr phosphorylation” value [3] was “increases”, the expression_or_secretion [4] was “increases” and the “other: ubiquitination” value [5] was “decreases”.
